In publication doi:10.1101/585463:

Columns and labels:
[1] = target: fully glycosylated CmeA (g2CmeA) (Campylobacter jejuni) (UniProt Q0PBE3); test: SPR
[2] = target: non-glycosylated CmeA (g0CmeA), periplasmic fusion protein of the CmeABC multidrug efflux pump (Campylobacter jejuni) (UniProt Q0PBE3); test: SPR

Q: Which results are given for “CmeC, outer membrane associated channel of the CmeABC multidrug efflux pump (natural protein)”?
A: Kd [1]: 5 nM; koff [1]: 0.00075 s⁻¹; kon [1]: 150000 M⁻¹ s⁻¹; Kd [2]: 17 nM; koff [2]: 0.0009 s⁻¹; kon [2]: 50000 M⁻¹ s⁻¹
